Data on one protein can be found in patent US20180031580.

The target in the data set is insulin-like growth factor type 1 (IGF-1).

B1: dipeptidyl-peptidase 4 (DPP-4) (protein)
chain: NKGTDDATADSRKTYTLTDYLKNTYRLKLYSLRWISDHEYLYKQENNILVFNAEYGNSSVFLENSTFDEFGHSINDYSISPDGQFILLEYNYVKQWRHSYTASYDIYDLNKRQLITEERIPNNTQWVTWSPVGHKLAYVWNNDIYVKIEPNLPSYRITWTGKEDIIYNGITDWVYEEEVFSAYSALWWSPNGTFLAYAQFNDTEVPLIEYSFYSDESLQYPKTVRVPYPKAGAVNPTVKFFVVNTDSLSSVTNATSIQITAPASMLIGDHYLCDVTWATQERISLQWLRRIQNYSVMDICDYDESSGRWNCLVARQHIEMSTTGWVGRFRPSEPHFTLDGNSFYKIISNEEGYRHICYFQIDKKDCTFITKGTWEVIGIEALTSDYLYYISNEYKGMPGGRNLYKIQLSDYTKVTCLSCELNPERCQYYSVSFSKEAKYYQLRCSGPGLPLYTLHSSVNDKGLRVLEDNSALDKMLQNVQMPSKKLDFIILNETKFWYQMILPPHFDKSKKYPLLLDVYAGPCSQKADTVFRLNWATYLASTENIIVASFDGRGSGYQGDKIMHAINRRLGTFEVEDQIEAARQFSKMGFVDNKRIAIWGWSYGGYVTSMVLGSGSGVFKCGIAVAPVSRWEYYDSVYTERYMGLPTPEDNLDHYRNSTVMSRAENFKQVEYLLIHGTADDNVHFQQSAQISKALVDVGVDFQAMWYTDEDHGIASSTAHQHIYTHMSHFIKQCFSLP
For the protein B1, the “phosphorylation level of ERK or Akt (western blot)” value is listed as “when the eNOS-deficient mice treated with IGF-1 was treated with DPP-4, the phosphorylation level of ERK or Akt which is the protein involved in intracellular signaling was reduced”.
